From article PMC11480844

B1: H2-Kb / B14 (parent)
chain 1: GEQVEQRPPHLSVREGDSAVIICTYTDPNSYYFFWYKQEPGAGLQLLMKVFSSTEINEGQGFTVLLNKKDKQLSLNLTAAHPGDSAVYFCAVSARGNMGYKLTFGTGTSLLVDP
chain 2: GGIITQTPKFLIGQEGQKLTLKCQQNFNHDTMYWYRQDSGKGLRLIYYSITENDLQKGDLSEGYDASREKKSSFSLTVTSAQKNEMAVFLCASSMGQGASDYTFGSGTRLLVI
chain 3: not shown
chain 4: IQKTPQIQVYSRHPPENGKPNILNCYVTQFHPPHIEIQMLKNGKKIPKVEMSDMSFSKDWSFYILAHTEFTPTETDTYACRVKHDSMAEPKTVYWDRDM
chain 5: SIINFEKL
B2: H2-Kb / E9 (parent)
chain 1: QQKVQQSPESLTVSEGAMASLNCTFSDRSSDNFRWYRQHSGKGLEVLVSIFSDGEKEEGSFTAHLNRASLHVFLHIREPQPSDSALYLCAVSRSSGSWQLIFGSGTQLTVMP
chain 2: NSGVVQSPRYIIKGKGERSILKCIPISGHLSVAWYQQTQGQELKFFIQHYDKMERDKGNLPSRFSVQQFDDYHSEMNMSALELEDSAVYFCASSRDSNNQAPLFGEGTRLSVL
chain 3: not shown
chain 4: B1 chain 4
chain 5: SIINFEKL
B3: H2-Kb / B3 (parent)
chain 1: GQQVKQSSPSLTVQEGGISILNCDYENDMFDYFAWYKKYPDNSPTLLISVRSNVDKREDGRLTVFLNKSGKHFSLHITASQPEDTAVYLCAAGNTGYQNFYFGKGTSLTVIP
chain 2: DSGVVQSPRHIIKEKGGRSVLTCIPISGHSNVVWYQQTLGKELKFLIQHYEKVERDKGFLPSRFSVQQFDDYHSEMNMSALELEDSAMYFCASSSLQGARNQAPLFGEGTRLSVL
chain 3: not shown
chain 4: B1 chain 4
chain 5: SIINFEKL

Variants of: B1
Experiment: % of reporter cells activated (NFAT-GFP), raw
Settings: with B14; scale: % of reporter cells activated
Note: test concentration or dose not given here.

Ratio to parent, by site and new letter:
chain 5 N4: I 0.484 | E 1.33 | H 0.911 | Q 1.07
chain 5 F5: A 1.33 | V 1.17
chain 5 E6: W 1.2 | A 0.418
chain 5 I2: W 0.933 | P 2.36 | A 0.778 | T 1.16
chain 5 K7: I 0.96 | H 0.796 | S 1.09
chain 5 L8: N 1.16 | G 1.38 | F 0.44 | Q 1.24 | E 0.516
chain 5 S1: T 1.42 | W 1.04 | A 0.942 | F 3.07 | Y 1.33 | N 0.231
chain 5 I3: A 1.33 | Q 1.69 | N 0.978 | G 1.38 | L 1.33 | T 1.47

Variants of: B2
Experiment: % of reporter cells activated (NFAT-GFP), raw
Settings: with E9; scale: % of reporter cells activated

Ratio to parent of substitutions, site by site:
chain 5 F5: Y 2.37 | E 2.43 | S 1.83 | W 1.14 | T 1.45 | A 1.68 | M 1.74 | I 1.02 | G 1.74 | P 2.51 | R 0.671 | N 2.01 | K 2.54 | V 1.89 | H 1.89 | C 1.95 | L 1.98 | D 3.05 | Q 1.32
chain 5 I3: K 2.31 | R 1.89 | N 0.778 | E 1.86 | G 1.62 | T 1.68 | Y 2.43 | S 2.13 | L 2.07 | C 1.65 | M 1.17 | A 1.71 | H 1.53 | D 1.41 | V 1.23 | F 1.26 | P 1.68 | W 1.74 | Q 1.83
chain 5 I2: E 2.07 | R 1.06 | H 1.71 | K 1.2 | Y 1.53 | W 1.86 | P 1.77 | L 1.5 | F 1.02 | S 1.46 | V 2.13 | G 1.32 | M 1.59 | Q 1.77 | T 2.01 | C 2.31 | A 2.22 | D 2.31 | N 1.77
chain 5 S1: D 1.29 | I 2.49 | N 1.32 | T 1.35 | L 2.01 | P 1.23 | G 2.1 | Q 1.16 | V 1.86 | H 2.01 | M 1.5 | F 2.34 | R 0.719 | E 2.1 | A 3.05 | C 3.08 | K 1.23
chain 5 N4: L 2.31 | A 2.22 | G 1.35 | H 2.63 | T 1.47 | P 2.07 | R 1.59 | C 2.34 | F 1.38 | Q 1.38 | S 1.89 | I 1.92 | K 2.4 | V 2.04 | D 1.11 | W 1.77 | M 1.71 | Y 1.15 | E 1.68
chain 5 L8: K 1.14 | Q 0.898 | T 0.623 | S 0.886 | Y 1.2 | C 2.78 | N 0.838 | F 1.77 | I 0.988 | V 0.302 | R 1.53 | G 1.25 | H 1.92 | D 0.605 | A 0.868 | M 0.988 | E 1.26 | P 1.35 | W 0.778
chain 5 K7: W 1.38 | H 2.43 | C 3.02 | S 1.41 | G 1.92 | F 0.958 | L 2.01 | M 1.02 | Q 2.28 | N 1.95 | Y 1.26 | I 2.54 | E 2.1 | R 0.237 | A 0.686 | T 2.01 | D 1.53 | V 1.71 | P 2.07
chain 5 E6: L 1.35 | V 3.26 | I 2.63 | A 2.25 | K 1.98 | R 2.34 | S 2.46 | T 2.1 | M 1.86 | D 1.68 | N 1.47 | C 0.862 | Y 2.84 | W 2.07 | F 1.68 | G 1.74 | Q 1.47 | P 2.1 | H 1.47

Variants of: B3
Experiment: % of reporter cells activated (NFAT-GFP), raw
Settings: with B3; scale: % of reporter cells activated

Ratio to parent of substitutions, site by site:
chain 5 K7: G 0.0497 | C 0.201 | M 0.315 | N 0.601 | D 0.0872 | V 0.215 | E 0.175 | T 0.253 | P 0.263 | W 0.634 | H 0.553 | Q 0.201 | R 0.199 | L 0.488 | A 0.18 | I 0.37 | S 0.219 | F 0.28 | Y 0.313
chain 5 E6: S 1.25 | M 0.793 | F 2.13 | C 2.48 | T 1.87 | W 2.6 | Q 0.961 | H 0.651 | L 0.766 | G 1.37 | P 1.43 | N 0.831 | V 2.28 | D 1.39 | R 0.469 | K 0.587 | Y 1.97 | I 0.819 | A 2.48
chain 5 I3: N 0.35 | A 0.585 | H 0.787 | E 0.956 | L 1.21 | D 0.144 | S 1.32 | G 0.273 | Y 0.153 | V 0.59 | M 1.73 | T 0.509 | P 1.7 | K 0.322 | C 0.787 | W 0.28 | R 0.0152 | Q 0.614 | F 0.216
chain 5 S1: W 0.138 | Y 0.576 | C 0.181 | M 0.195 | E 0.216 | G 0.192 | L 0.118 | N 0.0477 | F 0.18 | H 0.259 | K 0.356 | R 0.101 | T 0.194 | I 0.207 | D 0.229 | P 0.303 | A 0.221 | V 0.34 | Q 0.266
chain 5 F5: L 0.842 | H 0.428 | K 0.121 | T 0.842 | A 0.437 | I 0.467 | S 0.263 | C 0.411 | R 0.0406 | V 0.38 | N 0.305 | Q 0.343 | W 0.399 | M 0.771 | Y 0.918 | E 0.207 | P 0.228 | D 0.272 | G 0.197
chain 5 I2: V 1.39 | E 0.706 | A 1.67 | N 0.605 | L 1.35 | D 1.57 | K 0.551 | P 0.386 | R 0.777 | M 0.465 | G 1.01 | H 0.323 | Y 0.308 | F 0.945 | Q 0.228 | C 1.29 | W 0.631 | S 1.73 | T 2.16
chain 5 N4: Q 0.0254 | D 0.118 | C 0.164 | P 0.196 | I 0.183 | G 0.158 | Y 0.0862 | H 0.293 | R 0.181 | S 0.222 | K 0.189 | V 0.132 | T 0.137 | A 0.143 | E 0.188 | F 0.255 | W 0.176 | M 0.133 | L 0.204
chain 5 L8: A 0.21 | C 0.526 | T 0.7 | Y 0.619 | M 0.809 | S 0.287 | D 0.434 | K 0.331 | Q 0.258 | V 0.793 | I 0.902 | N 0.885 | H 0.547 | W 0.462 | F 0.341 | P 0.463 | E 0.448 | R 0.837 | G 0.264
